{"source": "patent US20240042018A1", "about": "(University of Washington, published 2024)", "binders": {"B1": {"name": "I53_dn5Acp7 PAS pentamer (designed binder)", "chain": "MGSHHHHHHGSDEQAEERAGTKAGNHGEDWGAAAVEMATKFNGSGGSGKYDGSKLRIGILHARGNAEIILELVLGALKRLQEFGVKRENIIIETVPGSFELPYGSKLFVEKQKRLGKPLDAIIPIGVLIRGSTAHFDYIADSTTHQLMKLNFELGIPVIFGVLTTESGGSASPAAPAPASPAAPAPSAPAAASPAAPAPASPAAPAPSAPAAASPAAPAPASPAAPAPSAPAA"}, "B2": {"name": "I53-50A_4gly trimer (designed binder)", "chain": "EELFKKHKIVAVLRANSVEEAIEKAVAVFAGGVHLIEITFTVPNATTVIKALSVLKEKGAIIGAGTVTSVEYANETVESGAEFIVSPHLDEEISNFTKEKGVFYMPGVMTPTELVKAMKLGHTILKLFPGEVVGPQFVKAMKGPFHNATFVPTGGVNLDNVCEWFKAGVLAVGVGSALVKGTPDEVREKAKAFVEKIRGCLEEQKLISEEDLHHHHHH", "modifications": "N-linked glycans at sequons 45-NAT-47; 73-YANET-77; 96-NFT-98; 146-FHNAT-150"}, "B3": {"name": "SEQ ID NO 77 (I53-50A_7gly) (designed binder)", "chain": "EELFKKHKIVAVLRANSVEEAIEKAVAVFAGGVHLIEITFTVPNATTVIKALSVLKEKGAIIGAGTVTSVEYANETVESNATFIVSPHLDEEISNFTKEKNVTYMPGVMTPTELVKAMKLNVTILKLFPGEVVGPQFVKAMKGPFHNATFVPTGGVNLDNVCEWFKAGVLAVGVGSALVKGTPDEVREKAKAFVEKIRGC", "modifications": "N-linked glycans at sequons 45-NAT-47; 73-YANET-77; 81-NAT-83; 96-NFT-98; 102-NVT-104; 122-NVT-124; 146-FHNAT-150"}, "B4": {"name": "SEQ ID NO 69 (I53-50A_4gly) (designed binder)", "chain": "B3 chain with N44D, T46D, Y72Q, A73C, N74R, E75K, T76A, N80G, T82E", "modifications": "N-linked glycans at sequons 96-NFT-98; 102-NVT-104; 122-NVT-124; 146-FHNAT-150"}, "B5": {"name": "SEQ ID NO 76 (I53-50A_7gly) (designed binder)", "chain": "B3 chain with T68F, V70N, Y72T, A73C, N74R, E75K, T76A", "modifications": "N-linked glycans at sequons 45-NAT-47; 69-FSNET-73; 81-NAT-83; 96-NFT-98; 102-NVT-104; 122-NVT-124; 146-FHNAT-150"}, "B6": {"name": "SEQ ID NO 71 (I53-50A_5gly) (designed binder)", "chain": "B3 chain with N80G, T82E, N101G, T103F", "modifications": "N-linked glycans at sequons 45-NAT-47; 73-YANET-77; 96-NFT-98; 122-NVT-124; 146-FHNAT-150"}, "B7": {"name": "SEQ ID NO 73 (I53-50A_6gly) (designed binder)", "chain": "B3 chain with T68F, V70N, Y72T, A73C, N74R, E75K, T76A, N80G, T82E", "modifications": "N-linked glycans at sequons 45-NAT-47; 69-FSNET-73; 96-NFT-98; 102-NVT-104; 122-NVT-124; 146-FHNAT-150"}, "B8": {"name": "SEQ ID NO 68 (I53-50A_4gly) (designed binder)", "chain": "B3 chain with N101G, T103F, N121G, V122H, H146P, A148V, T149K", "modifications": "N-linked glycans at sequons 45-NAT-47; 73-YANET-77; 81-NAT-83; 96-NFT-98"}, "B9": {"name": "SEQ ID NO 74 (I53-50A_6gly) (designed binder)", "chain": "B3 chain with Y72Q, A73C, N74R, E75K, T76A", "modifications": "N-linked glycans at sequons 45-NAT-47; 81-NAT-83; 96-NFT-98; 102-NVT-104; 122-NVT-124; 146-FHNAT-150"}, "B10": {"name": "SEQ ID NO 75 (I53-50A_6gly) (designed binder)", "chain": "B3 chain with N80G, T82E", "modifications": "N-linked glycans at sequons 45-NAT-47; 73-YANET-77; 96-NFT-98; 102-NVT-104; 122-NVT-124; 146-FHNAT-150"}, "B11": {"name": "I53_dn5Acp7 pentamer with ELP fused to the C terminus (designed binder)", "chain": "MGSHHHHHHGSDEQAEERAGTKAGNHGEDWGAAAVEMATKFNGSGGSGKYDGSKLRIGILHARGNAEIILELVLGALKRLQEFGVKRENIIIETVPGSFELPYGSKLFVEKQKRLGKPLDAIIPIGVLIRGSTAHFDYIADSTTHQLMKLNFELGIPVIFGVLTTES"}, "B12": {"name": "SEQ ID NO 70 (I53-50A_4gly) (designed binder)", "chain": "EELFKKHKIVAVLRANSVEEAIEKAVAVFAGGVHLIEITFTVPDADTVIKALSVLKEKGAIIGAGTVFSNETCRKAVESNATFIVSPHLDEEISNFTKEKNVTYMPGVMTPTELVKAMKLGHTILKLFPGEVVGPQFVKAMKGPFPNVKFVPTGGVNLDNVCEWFKAGVLAVGVGSALVKGTPDEVREKAKAFVEKIRGC", "modifications": "N-linked glycans at sequons 69-FSNET-73; 81-NAT-83; 96-NFT-98; 102-NVT-104"}, "B13": {"name": "I53_dn5A_D120C pentamer coupled to 1 kDa PEG (designed binder)", "chain": "MGKYDGSKLRIGILHARGNAEIILALVLGALKRLQEFGVKRENIIIETVPGSFELPYGSKLFVEKQKRLGKPLDAIIPIGVLIRGSTPHFDYIADSTTHQLMKLNFELGIPVIFGVITADTCEQAEARAGLIEGKMHNHGEDWGAAAVEMATKFNGGWELQLEGSHHHHHH"}, "B14": {"name": "I53_dn5A_1C5kPEG pentamer (designed binder)", "chain": "B13 chain"}, "B15": {"name": "I53_dn5A_D120C pentamer coupled to 2 kDa PEG (designed binder)", "chain": "B13 chain"}, "B16": {"name": "I53_dn5A_S84C_D120C pentamer coupled to 1 kDa PEG (designed binder)", "chain": "B13 chain with S86C"}, "B17": {"name": "I53_dn5A_S84C_D120C pentamer coupled to 5 kDa PEG (designed binder)", "chain": "B13 chain with S86C", "modifications": "5 kDa PEG-maleimide on Cys84 and Cys120"}, "B18": {"name": "I53_dn5A_2C2kPEG pentamer (designed binder)", "chain": "B13 chain with S86C"}, "B19": {"name": "I53_dn5A_2gly pentamer (designed binder)", "chain": "KYDGSKLRIGILHARGNAEIILELVLGALKRLQEFGVKRENIIIETVPGSFELPYGSKLFVEKQKRLGKPLDAIIPIGVLIRGNDTHFDYIADSTTHQLMKLNFELGIPVIFGVLTTNSTEQAEERAGTKAGNHGEDWGAAAVEMATKFNLEEQKLISEEDLHHHHHH"}, "B20": {"name": "SEQ ID NO 52 (I53_dn5A_2gly) (designed binder)", "chain": "B19 chain with G83N, N84D, D85T, T86A, N118E, T120D, K130N, G132T", "modifications": "N-linked glycans at sequons 83-NDT-85; 130-NAT-132"}, "B21": {"name": "SEQ ID NO 55 (I53_dn5A_2gly) (designed binder)", "chain": "B19 chain with N84S, D85T, T86A, N118E, T120N, Q122T, K130N, G132T", "modifications": "N-linked glycans at sequons 120-NET-122; 130-NAT-132"}, "B22": {"name": "SEQ ID NO 51 (I53_dn5A_3gly) (designed binder)", "chain": "B19 chain with S119D, K130N, G132T", "modifications": "N-linked glycans at sequons 84-NDT-86; 118-NDT-120; 130-NAT-132"}, "B23": {"name": "SEQ ID NO 49 (I53_dn5A_3gly) (designed binder)", "chain": "B19 chain with G83N, N84E, D85T, T86A, S119D, K130N, G132T", "modifications": "N-linked glycans at sequons 83-NET-85; 118-NDT-120; 130-NAT-132"}, "B24": {"name": "SEQ ID NO 53 (I53_dn5A_2gly) (designed binder)", "chain": "B19 chain with N118E, T120D, A131N, N133T", "modifications": "N-linked glycans at sequons 84-NDT-86; 131-NGT-133"}, "B25": {"name": "SEQ ID NO 50 (I53_dn5A_3gly) (designed binder)", "chain": "B19 chain with N118E, T120N, Q122T, A131N, N133T", "modifications": "N-linked glycans at sequons 84-NDT-86; 120-NET-122; 131-NGT-133"}}, "key": {"I53_dn5B trimer [1]": {"biological_target": "T1, I53_dn5B trimer", "T1 chain": "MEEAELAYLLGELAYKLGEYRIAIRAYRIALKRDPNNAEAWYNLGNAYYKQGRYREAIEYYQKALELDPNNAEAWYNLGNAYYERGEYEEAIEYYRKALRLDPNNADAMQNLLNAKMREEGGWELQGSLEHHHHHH", "test": "in vitro nanoparticle assembly, SEC"}, "I53-50B.4PT1 pentamer [2]": {"biological_target": "I53-50B.4PT1 pentamer", "test": "nanoparticle assembly grade, Table 3"}, "I53-50B.4PT1 pentamer [3]": {"biological_target": "I53-50B.4PT1 pentamer", "test": "in vitro nanoparticle assembly (Table 3; '-' means no nanoparticle assembly)"}, "I53_dn5B trimer [4]": {"biological_target": "T1, I53_dn5B trimer", "test": "in vitro nanoparticle assembly, SEC and SDS-PAGE"}, "I53_dn5B_2gly trimer": {"biological_target": "T2, I53_dn5B_2gly trimer (N-linked glycans at PNGS 32-YDNLT-36 and 89-NAT-91)", "T2 chain": "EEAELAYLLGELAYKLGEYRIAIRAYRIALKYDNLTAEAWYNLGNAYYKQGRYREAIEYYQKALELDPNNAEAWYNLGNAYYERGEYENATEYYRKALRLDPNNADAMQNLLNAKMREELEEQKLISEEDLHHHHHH", "test": "in vitro nanoparticle assembly, SEC and SDS-PAGE"}, "I53_dn5B trimer [5]": {"biological_target": "T1, I53_dn5B trimer", "test": "nanoparticle assembly grade, Table 3"}}, "note": "Changes are numbered by the printed parent chain.", "data": [{"binder": "B1", "values": [{"measurement": "binding result", "setting": "I53_dn5B trimer [1]", "result": "binds"}]}, {"binder": "B2", "values": [{"measurement": "binding result", "setting": "I53-50B.4PT1 pentamer [2]", "result": "binds"}]}, {"binder": "B3", "values": [{"measurement": "binding result", "setting": "I53-50B.4PT1 pentamer [3]", "result": "no binding"}]}, {"binder": "B4", "values": [{"measurement": "binding result", "setting": "I53-50B.4PT1 pentamer [2]", "result": "binds"}]}, {"binder": "B5", "values": [{"measurement": "binding result", "setting": "I53-50B.4PT1 pentamer [3]", "result": "no binding"}]}, {"binder": "B6", "values": [{"measurement": "binding result", "setting": "I53-50B.4PT1 pentamer [2]", "result": "binds"}]}, {"binder": "B7", "values": [{"measurement": "binding result", "setting": "I53-50B.4PT1 pentamer [2]", "result": "binds"}]}, {"binder": "B8", "values": [{"measurement": "binding result", "setting": "I53-50B.4PT1 pentamer [2]", "result": "binds"}]}, {"binder": "B9", "values": [{"measurement": "binding result", "setting": "I53-50B.4PT1 pentamer [2]", "result": "binds"}]}, {"binder": "B10", "values": [{"measurement": "binding result", "setting": "I53-50B.4PT1 pentamer [3]", "result": "no binding"}]}, {"binder": "B11", "values": [{"measurement": "binding result", "setting": "I53_dn5B trimer [1]", "result": "binds"}]}, {"binder": "B12", "values": [{"measurement": "binding result", "setting": "I53-50B.4PT1 pentamer [2]", "result": "binds"}]}, {"binder": "B13", "values": [{"measurement": "binding result", "setting": "I53_dn5B trimer [1]", "result": "binds"}]}, {"binder": "B14", "values": [{"measurement": "binding result", "setting": "I53_dn5B trimer [4]", "result": "binds"}]}, {"binder": "B15", "values": [{"measurement": "binding result", "setting": "I53_dn5B trimer [1]", "result": "binds"}]}, {"binder": "B16", "values": [{"measurement": "binding result", "setting": "I53_dn5B trimer [1]", "result": "binds"}]}, {"binder": "B17", "values": [{"measurement": "binding result", "setting": "I53_dn5B trimer [1]", "result": "binds"}]}, {"binder": "B18", "values": [{"measurement": "binding result", "setting": "I53_dn5B trimer [1]", "result": "binds"}]}, {"binder": "B19", "values": [{"measurement": "binding result", "setting": "I53_dn5B_2gly trimer", "result": "binds"}, {"measurement": "binding result", "setting": "I53_dn5B trimer [5]", "result": "binds"}]}, {"binder": "B20", "values": [{"measurement": "binding result", "setting": "I53_dn5B trimer [5]", "result": "binds"}]}, {"binder": "B21", "values": [{"measurement": "binding result", "setting": "I53_dn5B trimer [5]", "result": "binds"}]}, {"binder": "B22", "values": [{"measurement": "binding result", "setting": "I53_dn5B trimer [5]", "result": "binds"}]}, {"binder": "B23", "values": [{"measurement": "binding result", "setting": "I53_dn5B trimer [5]", "result": "binds"}]}, {"binder": "B24", "values": [{"measurement": "binding result", "setting": "I53_dn5B trimer [5]", "result": "binds"}]}, {"binder": "B25", "values": [{"measurement": "binding result", "setting": "I53_dn5B trimer [5]", "result": "binds"}]}]}
